± gives the standard deviation.

The data set is described as follows: protein stability index of a GFP-peptide fusion (GPS, HEK-293T) (PSI 1-6); higher = more stable. The following applies: c terminus: a fixed tail appended.
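Further: 24-mer peptide tiles fused after GFP, lentivirally expressed, FACS-sorted into six equal bins by GFP/DsRed ratio, decoded by Illumina sequencing, PSI is the read-weighted mean bin number.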

Consider GTEEKKKLIRDFDEKQQEANETLA [VTI1B], for which the protein stability index is 5.57 ± 0.22 (treatment: DMSO) and 5.51 ± 0.15 (treatment: MLN4924 1 uM, 8 h).

On to GTWDDAFATFCGGLAANGALQRLD [LRRC45], for which the protein stability index runs as follows: (treatment: DMSO) 3.2 ± 0.052; (treatment: MLN4924 1 uM, 8 h) 3.12 ± 0.28.

With GVDPQQKMELGIDLLAYGAKAELP [MYOZ1], the protein stability index came to 3.95 ± 0.083 (treatment: DMSO) and 4.05 ± 0.16 (treatment: MLN4924 1 uM, 8 h).

With GVEIDEINVYGNTALHIACYNGQD [ANKRD44], the protein stability index reads like this: (treatment: DMSO) 3.58 ± 0.19; (treatment: MLN4924 1 uM, 8 h) 3.55 ± 0.33.

Consider GVGFATRKVAGMAKPNMIISVNGD [FABP4], for which the protein stability index worked out at 3.02 ± 0.28 (treatment: DMSO) and 3.04 ± 0.47 (treatment: MLN4924 1 uM, 8 h).

With GVNPDQVEKIRKLPNTLLRKDKDV [ANKRD40], the protein stability index by setting is: (treatment: DMSO) 4.63 ± 0.35; (treatment: MLN4924 1 uM, 8 h) 4.73 ± 0.26.

On to GVRCNTPAMGLQKKLRLNGGRNPY [LOXL2], for which the protein stability index runs as follows: (treatment: DMSO) 2.75 ± 0.12; (treatment: MLN4924 1 uM, 8 h) 2.95 ± 0.34.

For the sequence GVRIVSRGRTQLFSLNPRSGSLIT [PCDHGA10], the protein stability index (treatment: DMSO) was found to be 2.08 ± 0.2 and the protein stability index (treatment: MLN4924 1 uM, 8 h) was determined as 2.21 ± 0.25.

As for GVRVSVPCPSTTCCRACSVSFSTG [BET1L], the protein stability index turned out to be 2.49 ± 0.38 (treatment: DMSO) and 2.35 ± 0.31 (treatment: MLN4924 1 uM, 8 h).

As to GVWAPPAPGFGEDVPNRLVDNIDM [BEX5], the protein stability index turned out to be 4.52 ± 0.57 (treatment: DMSO) and 4.25 ± 0.55 (treatment: MLN4924 1 uM, 8 h).

For GWGTVFSLESEEEEYPGITAEDSN [BCL2L13], the protein stability index is, setting by setting: (treatment: DMSO) 5.05 ± 0.23; (treatment: MLN4924 1 uM, 8 h) 5.03 ± 0.38.

With GYDDDNHDYIVRSGERWLERYEID [DYRK1B], the protein stability index reads like this: (treatment: DMSO) 4.11 ± 0.27; (treatment: MLN4924 1 uM, 8 h) 4.03 ± 0.22.

GYSGTSDRIRFTVNRRISIVGFGL [BTBD1]: the protein stability index by setting is: (treatment: DMSO) 2.83 ± 0.27; (treatment: MLN4924 1 uM, 8 h) 2.87 ± 0.36.

Take HAEIIAWIRICRPGSIIGPQQHFL [CDC14A]: the protein stability index runs as follows: (treatment: DMSO) 3.91 ± 0.99; (treatment: MLN4924 1 uM, 8 h) 2.74 ± 1.6.

Regarding HAPGVPRILVGNRLHLAFKRQVPT [RAB40C], the protein stability index worked out at 2.69 ± 0.17 (treatment: DMSO) and 2.72 ± 0.13 (treatment: MLN4924 1 uM, 8 h).

HDYIVRSGERWLERYEIDSLIGKG [DYRK1B]: the protein stability index is, setting by setting: (treatment: DMSO) 2.95 ± 0.49; (treatment: MLN4924 1 uM, 8 h) 3.11 ± 0.38.

On to HEGKTDSERTDTAADGETTATEEL [EPB41L3], for which the protein stability index stood at 5.65 ± 0.34 (treatment: DMSO) and 5.51 ± 0.21 (treatment: MLN4924 1 uM, 8 h).

Turning to HESEGGRTPLMKAARAGHVCTVQF [ANKRD17], the protein stability index reads like this: (treatment: DMSO) 2.71 ± 0.28; (treatment: MLN4924 1 uM, 8 h) 2.6 ± 0.33.

In the case of HETESTSDKETDIDDRYGDLDSRT [CDS1], the protein stability index came out at 5.42 ± 0.19 (treatment: DMSO) and 5.6 ± 0.22 (treatment: MLN4924 1 uM, 8 h).

As for HFRHPKRSVSLSMRKSGAMKKGGI [BNIP3L], the protein stability index by setting is: (treatment: DMSO) 3.51 ± 0.36; (treatment: MLN4924 1 uM, 8 h) 3.32 ± 0.35.

Consider HHAKDSEGVEIMLGVCASGLLIYR [EPB41L3], for which the protein stability index runs as follows: (treatment: DMSO) 2.12 ± 0.69; (treatment: MLN4924 1 uM, 8 h) 2.14 ± 0.61.

For the sequence HHLPLPDNWKSQVEPETRAVIRWM [CPN1], the protein stability index by setting is: (treatment: DMSO) 2.62 ± 0.34; (treatment: MLN4924 1 uM, 8 h) 2.77 ± 0.44.

For the sequence HKSAFNDWFSGHLNFQIEHHLFPT [FADS1], the protein stability index was determined as 2.11 ± 0.18 (treatment: DMSO) and 2.07 ± 0.41 (treatment: MLN4924 1 uM, 8 h).

For the sequence HNNNNNCEENEQSLPPPAGLNSSW [BNIP3L], the protein stability index stood at 4.96 ± 0.17 (treatment: DMSO) and 5.09 ± 0.078 (treatment: MLN4924 1 uM, 8 h).

Regarding HPRALPPDARPHRRPHELLPVGGR [HAGHL], the protein stability index turned out to be 4.48 ± 0.12 (treatment: DMSO) and 4.33 ± 0.23 (treatment: MLN4924 1 uM, 8 h).

As for HQDVPSQDDSKPTQRQFTILNFND [AASDHPPT], the protein stability index is, setting by setting: (treatment: DMSO) 4.59 ± 0.27; (treatment: MLN4924 1 uM, 8 h) 4.76 ± 0.32.

Consider HQHEEIQNVRNHIHSCFSDVTCFL [ATL3], for which the protein stability index is 2.26 ± 0.15 (treatment: DMSO) and 2.26 ± 0.13 (treatment: MLN4924 1 uM, 8 h).

HQLLEPIRDFEARKCPVHGKTMEL [TRIM29]: the protein stability index is, setting by setting: (treatment: DMSO) 3.89 ± 0.17; (treatment: MLN4924 1 uM, 8 h) 3.84 ± 0.17.

As for HQRDGTLGALHTSSKPTALPSASS [SASS6], the protein stability index runs as follows: (treatment: DMSO) 4.57 ± 0.25; (treatment: MLN4924 1 uM, 8 h) 4.55 ± 0.12.

Take HSKLTDREKTNICYLSFPDSNSGC [DENND6A]: the protein stability index is 3.32 ± 0.26 (treatment: DMSO) and 3.39 ± 0.3 (treatment: MLN4924 1 uM, 8 h).

As to HSVTGFLCEPDPVHFSEAIEKFIR [ALG2], the protein stability index (treatment: DMSO) was determined as 2.8 ± 0.21 and the protein stability index (treatment: MLN4924 1 uM, 8 h) amounted to 2.93 ± 0.26.

HTFKTRFTQPLLPAFTVWCGSFQV [FSD1]: the protein stability index worked out at 3.1 ± 0.55 (treatment: DMSO) and 2.69 ± 1.1 (treatment: MLN4924 1 uM, 8 h).

On to HTHPSACQGQRLFEKLLQLTSQNI [PLD5], for which the protein stability index was 2.21 ± 0.21 (treatment: DMSO) and 1.84 ± 0.37 (treatment: MLN4924 1 uM, 8 h).

Take HVKFRSLSMVSECLFSLINGDDMF [MCOLN1]: the protein stability index was 2.84 ± 0.45 (treatment: DMSO) and 2.61 ± 0.45 (treatment: MLN4924 1 uM, 8 h).

As to HVLLEGEGLGQSLGNFKDDLLNVC [TRIM29], the protein stability index is, setting by setting: (treatment: DMSO) 3.06 ± 0.041; (treatment: MLN4924 1 uM, 8 h) 3.1 ± 0.17.

As to HVTLTLPPTQLEVNLEEIPGEGLL [C2CD2L], the protein stability index (treatment: DMSO) was 4.07 ± 0.18 and the protein stability index (treatment: MLN4924 1 uM, 8 h) came out at 3.96 ± 0.42.
